From the Immune Epitope Database (IEDB) come the findings set out here.

Where only a bound is given, the exact number is not on record here.

Experiment [1] has as its target HLA-B*08:01. Put plainly: IEDB peptide-MHC binding, purified MHC/competitive/radioactivity; filed as Kd, often an IC50 or EC50 that approximates it; ≥ and ≤ were set here for values at or beyond the usual limits of such assays.
The next experiment concerns the target HLA-A*24:03. Put plainly: IEDB peptide-MHC binding, purified MHC/direct/fluorescence; filed as Kd, often an IC50 or EC50 that approximates it; ≥ and ≤ were set here for values at or beyond the usual limits of such assays.
Experiment [2] addresses HLA-A*26:01. Described as above.
A further experiment addresses HLA-B*07:02. Described as above.
Another experiment addresses HLA-B*40:01. The experiment is described as above.
The target of experiment [3] is HLA-A*02:01. Described as above.
The target of a further experiment is HLA-A*69:01. The description is as above.
Another experiment has as its target HLA-B*27:05. Described as above.
Experiment [4] has as its target HLA-A*03:01. Described as above.
Experiment [5] deals with HLA-B*08:01. The description is as above.
Experiment [6] has as its target HLA-B*15:01. Described as above.
The next experiment addresses HLA-B*44:02. The experiment is described as above.
The target of experiment [7] is HLA-A*11:01. Described as above.
Experiment [8] addresses HLA-A*01:01. The description is as above. To be noted: source organism: Vibrio cholerae.
In a further experiment the target is HLA-B*58:01. Described as above.
In the next experiment the target is HLA-A*30:02. The experiment is described as follows: IEDB peptide-MHC binding, purified MHC/competitive/radioactivity; filed as Kd, often an IC50 or EC50 that approximates it; ≥ and ≤ were set here for values at or beyond the usual limits of such assays.
A further experiment has as its target HLA-A*23:01. Described as above.
Another experiment concerns the target HLA-A*02:02. Described as above.
A further experiment has as its target HLA-A*29:02. The experiment is described as above.
Another experiment concerns the target HLA-A*02:03. The description is as above.
In experiment [9] the target is HLA-A*26:01. Described as above.
In the next experiment the target is HLA-A*02:06. The description is as above.
A further experiment concerns the target HLA-A*24:02. The description is as above.
The target in experiment [10] is HLA-A*01:01. Described as above.
Experiment [11] concerns the target HLA-A*02:01. The experiment is described as follows: IEDB peptide-MHC binding, purified MHC/competitive/fluorescence; filed as Kd, often an IC50 or EC50 that approximates it; ≥ and ≤ were set here for values at or beyond the usual limits of such assays. To be noted: source organism: Variola virus.
Experiment [12] deals with HLA-B*15:01. The experiment is described as follows: IEDB peptide-MHC binding, purified MHC/competitive/radioactivity; filed as Kd, often an IC50 or EC50 that approximates it; ≥ and ≤ were set here for values at or beyond the usual limits of such assays. To be noted: source organism: Vaccinia virus WR.
Experiment [13] addresses HLA-A*31:01. The experiment is described as follows: IEDB peptide-MHC binding, purified MHC/direct/fluorescence; filed as Kd, often an IC50 or EC50 that approximates it; ≥ and ≤ were set here for values at or beyond the usual limits of such assays. The following applies: source organism: Giardia intestinalis.
Experiment [14] has as its target HLA-A*03:01. Put plainly: IEDB peptide-MHC binding, purified MHC/competitive/radioactivity; filed as Kd, often an IC50 or EC50 that approximates it; ≥ and ≤ were set here for values at or beyond the usual limits of such assays. The following applies: source organism: SARS coronavirus Tor2.
The next experiment concerns the target HLA-A*68:01. Described as above. The following applies: source organism: SARS coronavirus Tor2.
Experiment [15] deals with HLA-A*11:01. Described as above. The following applies: source organism: SARS coronavirus Tor2.
In another experiment the target is HLA-A*33:01. Described as above. To be noted: source organism: SARS coronavirus Tor2.
The target in experiment [16] is HLA-A*31:01. The description is as above. The following applies: source organism: SARS coronavirus Tor2.
[17] abbreviates: source organism: Vaccinia virus WR.
The mark [18] stands for this setting: source organism: Vibrio cholerae.
[19] abbreviates: source organism: SARS coronavirus Tor2.
[20] abbreviates: source organism: Dengue virus 3 Martinique/1243/1999.
Where [21] appears, read: source organism: Mammarenavirus lassaense.
[22] abbreviates: source organism: Dengue virus 2 Jamaica/1409/1983.
Where [23] appears, read: source organism: Giardia intestinalis.
Where [24] appears, read: source organism: Dengue virus 4 Philippines/H241/1956.

For SAEMRLLSI, the Kd in the experiment with HLA-B*08:01 [1] (setting [17]) worked out at 0.0205 µM.

Consider SVMPAWQEK, for which the Kd was 10.3 µM in the experiment with HLA-A*24:03 (setting [18]); at least 20 µM in the experiment with HLA-A*26:01 [2] (setting [18]); at least 20 µM with HLA-B*07:02 (setting [18]); at least 20 µM with HLA-B*40:01 (setting [18]); at least 20 µM with HLA-A*02:01 [3] (setting [18]); at least 20 µM with HLA-A*69:01 (setting [18]). Further, the Kd with HLA-B*27:05 (setting [18]) is at least 20 µM; with HLA-A*03:01 [4] (setting [18]) it was 0.0741 µM; in the experiment with HLA-B*08:01 [5] (setting [18]), at least 20 µM; with HLA-B*15:01 [6] (setting [18]), at least 20 µM; with HLA-B*44:02 (setting [18]), at least 20 µM; with HLA-A*11:01 [7] (setting [18]) it was 0.00501 µM. Further, the Kd in the experiment with HLA-A*01:01 [8] and in the experiment with HLA-B*58:01 (setting [18]) was at least 20 µM in each case.

Consider NMLRIMASL, for which the Kd was at least 100 µM with HLA-A*30:02 (setting [19]); 10.9 µM with HLA-A*23:01 (setting [19]); 0.0034 µM with HLA-A*02:02 (setting [19]); at least 36.9 µM in the experiment with HLA-A*29:02 (setting [19]); 0.0375 µM with HLA-A*02:03 (setting [19]); 18.2 µM in the experiment with HLA-A*26:01 [9] (setting [19]). The Kd with HLA-A*02:06 (setting [19]) was 0.05 µM; in the experiment with HLA-A*24:02 (setting [19]) it was at least 32.2 µM; with HLA-A*01:01 [10] (setting [19]), at least 26.3 µM.

As to ERLQRKHGGM, the Kd with HLA-B*08:01 [1] (setting [20]) amounted to 0.0922 µM.

For KYLPNGDYI, the Kd in the experiment with HLA-A*24:03 (source organism: Vibrio parahaemolyticus) amounted to 0.0129 µM.

The sequence TFHLSIPNF returned a Kd with HLA-A*24:03 (setting [21]) of 0.0345 µM.

Turning to NLRCHSAHV, the Kd with HLA-A*02:02 (setting [17]) came to 0.384 µM; with HLA-A*02:03 (setting [17]) it was 0.011 µM; with HLA-A*02:06 (setting [17]) it was 8.03 µM; with HLA-B*08:01 [1] (setting [17]), 0.00124 µM.

As to FVMFGFCYL, in the experiment with HLA-B*08:01 [1] (setting [17]), the Kd was determined as 0.865 µM.

As for LTIPPTAGIL, in the experiment with HLA-B*08:01 [1] (setting [22]), the Kd was determined as 1.1 µM.

On to MLKRERNRV, for which, in the experiment with HLA-B*08:01 [1] (setting [22]), the Kd turned out to be 0.0529 µM.

SMHFYGWSL: the Kd turned out to be 0.303 µM with HLA-A*02:01 [11], 0.00285 µM in the experiment with HLA-B*08:01 [1] (setting [17]) and 0.063 µM in the experiment with HLA-B*15:01 [12].

Take GYTPGQQFY: the Kd was 5.42 µM with HLA-A*24:03 (setting [23]); at least 20 µM with HLA-A*26:01 [2] (setting [23]); at least 20 µM in the experiment with HLA-B*07:02 (setting [23]); at least 20 µM with HLA-B*40:01 (setting [23]); at least 20 µM with HLA-A*02:01 [3] (setting [23]); at least 20 µM with HLA-A*69:01 (setting [23]). Further, the Kd with HLA-B*27:05 (setting [23]), in the experiment with HLA-A*03:01 [4] (setting [23]), with HLA-B*08:01 [5] (setting [23]), with HLA-B*15:01 [6] (setting [23]), with HLA-B*44:02 (setting [23]) and in the experiment with HLA-A*11:01 [7] (setting [23]) was at least 20 µM throughout. Moreover, the Kd with HLA-B*58:01 (setting [23]) and with HLA-A*31:01 [13] was at least 20 µM each time.

As to IQPQWIAASI, the Kd in the experiment with HLA-B*08:01 [1] (setting [24]) stood at 0.858 µM.

Turning to HAQRIETWIL, the Kd with HLA-B*08:01 [1] (source organism: Dengue virus 2 Peru/IQT2913/1996) worked out at 1.15 µM.

Regarding QLAKRFSRG, the Kd in the experiment with HLA-B*08:01 [1] (source organism: Dengue virus 3 Singapore/8120/1995) came to 1.28 µM.

For the sequence RKLTSRETAL, the Kd in the experiment with HLA-B*08:01 [1] (setting [24]) was 0.178 µM.

ILCVPNAVIL: the Kd with HLA-B*08:01 [1] (setting [22]) was 5.54 µM.

For the sequence SLLFKTASG, the Kd with HLA-B*08:01 [1] (setting [20]) came out at 0.534 µM.

Regarding ANITHFCSF, the figures for the Kd with HLA-B*08:01 [1] (setting [17]) and in the experiment with HLA-B*15:01 [12] were 10.6 µM and 0.015 µM, respectively.

Consider LFCLLNRYF, for which the Kd with HLA-A*30:02 (setting [19]) was at least 81.1 µM; in the experiment with HLA-A*23:01 (setting [19]), at least 70 µM; with HLA-A*29:02 (setting [19]) it was at least 40.4 µM; with HLA-A*26:01 [9] (setting [19]), 1.14 µM; with HLA-A*24:02 (setting [19]) it was at least 77.6 µM; with HLA-A*01:01 [10] (setting [19]) it was 3.44 µM.

On to SLLKNDVPL, for which the Kd with HLA-B*08:01 [1] (source organism: Dengue virus 1 Brazil/97-11/1997) was determined as 0.124 µM.

Regarding IKTTAKEVAL, in the experiment with HLA-B*08:01 [1] (setting [24]), the Kd turned out to be 4.46 µM.

For AGFTAGLSY, the Kd in the experiment with HLA-A*30:02 (setting [21]) was 0.149 µM; with HLA-A*23:01 (setting [21]) it was at least 69.9 µM; in the experiment with HLA-A*29:02 (setting [21]), 0.0604 µM; with HLA-A*26:01 [9] (setting [21]) it was at least 77.9 µM; with HLA-A*24:02 (setting [21]) it was at least 77.5 µM; with HLA-A*01:01 [10] (setting [21]) it was at least 21.1 µM.

Regarding PYPDPSRIL, the Kd with HLA-A*30:02 (setting [19]) was at least 75 µM; with HLA-A*23:01 (setting [19]), 19.8 µM; with HLA-A*29:02 (setting [19]), at least 35.9 µM; in the experiment with HLA-A*26:01 [9] (setting [19]), at least 77.9 µM; with HLA-A*24:02 (setting [19]) it was at least 83.3 µM; in the experiment with HLA-A*01:01 [10] (setting [19]), at least 78.1 µM.

With FNKGHFTRL, the Kd with HLA-B*08:01 [1] (source organism: Vaccinia virus Copenhagen) is 0.0163 µM.

As to LHRMDLGVPL, the Kd with HLA-B*08:01 [1] (setting [24]) was 1.01 µM.

As to WKTWGKAKML, the Kd with HLA-B*08:01 [1] (setting [22]) came to 3.8 µM.

As for NTCDGNTFTY, the Kd is at least 125 µM in the experiment with HLA-A*30:02 (setting [19]); 5.34 µM with HLA-A*23:01 (setting [19]); at least 26 µM with HLA-A*29:02 (setting [19]); at least 77.9 µM with HLA-A*26:01 [9] (setting [19]); 0.00225 µM with HLA-A*03:01 [14]; 5.75 µM with HLA-A*24:02 (setting [19]). In addition, the Kd in the experiment with HLA-A*68:01 is 1.06 µM; with HLA-A*11:01 [15], 0.0236 µM; with HLA-A*01:01 [10] (setting [19]), at least 89.3 µM; with HLA-A*33:01, 13.2 µM; with HLA-A*31:01 [16], 0.0334 µM.

In the case of HRRDLRLASM, the Kd with HLA-B*08:01 [1] (setting [24]) was 0.0112 µM.

As for LTKHPNQEY, the Kd with HLA-A*30:02 (setting [19]) is 0.153 µM; with HLA-A*23:01 (setting [19]), at least 77.8 µM; in the experiment with HLA-A*29:02 (setting [19]) it was 3.4 µM; with HLA-A*26:01 [9] (setting [19]) it was at least 34.3 µM; with HLA-A*24:02 (setting [19]) it was at least 77.6 µM; with HLA-A*01:01 [10] (setting [19]) it was 17.3 µM.
